Laboratory results from US20240240141A1, “RAPID AND EFFICIENT CLINICAL GRADE PIGMENT EPITHELIUM INDUCTION METHOD, KIT, AND APPLICATION” (ALLIFE MEDICINE (ZHUHAI) LIMITED, priority 2021, published 2024).

Tested on: iPSCs
Assay: qPCR of PAX6 expression in iPSCs cultured in RDM1 with different BMP signaling pathway inhibitors
Type: cell-based
Conditions: 50 ng/mL noggin in RDM1 culture medium, day 6, Day 0 as control; compared with 2 μM Dorsomorphin or 3 μM LDN-193189 (FIG. 9)
Description: 1. Collect 200W cells, adding 1 ml TRIZOL, extracting RNA and determining the RNA concentration. Taking 1 μg RNA and reverse-transcribing it into cDNA. Premixing according to the system as follows in Table 1.
2. Then putting the above system into the Light cycler instrument for reaction according to the 3-step method with a number of cycles of 45. The reaction system is as follows in Table 2:
iPSCs were cultured according to the method of Example 1. 50 ng/mL noggin, 2 μM Dorsomorphin or 3 μM LDN-193189 was added to the RDM1 culture medium as three sets of parallel controls. The expression level of PAX6 in the cells on day 6 was detected.
The results are shown in FIG. 9: Day 0 was used as a control. The expression level of PAX6 was detected after 6 days of cell differentiation.

B1: noggin (protein, UniProt Q13253 28-232, looked up)
Noggin: QHYLHIRPAPSDNLPLVDLIEHPDPIFDPKEKDLNETLLRSLLGGHYDPGFMATSPPEDRPGGGGGAAGGAEDLAELDQLLRQRPSGAMPSEIKGLEFSEGLAQGKKQRLSKKLRRKLQMWLWSQTFCPVLYAWNDLGSRFWPRYVKVGSCFSKRSCSVPEGMVCKPSKSVHLTVLRWRCQRRGGQRCGWIPIQYPIISECKCSC
Q: B1 was tested. Which “expression level of PAX6” value did it give?
A: the best effect and the highest expression level of PAX6
